B1: AHAS-WT (rice acetohydroxyacid synthase) (Oryza sativa Japonica Group; DEL548-548) (protein)
chain: TPLRPWGPAEPRKGADILVEALERCGVSDVFAYPGGASMEIHQALTRSPVITNHLFRHEQGEAFAASGYARASGRVGVCVATSGPGATNLVSALADALLDSVPMVAITGQVPRRMIGTDAFQETPIVEVTRSITKHNYLVLDVEDIPRVIQEAFFLASSGRPGPVLVDIPKDIQQQMAVPVWDTSMNLPGYIARLPKPPATELLEQVLRLVGESRRPILYVGGGCSASGDELRWFVELTGIPVTTTLMGLGNFPSDDPLSLRMLGMHGTVYANYAVDKADLLLAFGVRFDDRVTGKIEAFASRAKIVHIDIDPAEIGKNKQPHVSICADVKLALQGLNALLQQSTTKTSSDFSAWHNELDQQKREFPLGYKTFGEEIPPQYAIQVLDELTKGEAIIATGVGQHQMWAAQYYTYKRPRQWLSSAGLGAMGFGLPAAAGASVANPGVTVVDIDGDGSFLMNIQELALIRIENLPVKVMVLNNQHLGMVVQEDRFYKANRAHTYLGNPECESEIYPDFVTIAKGFNIPAVRVTKKSEVRAAIKKMLETPGPYLLDIIVPHQEHVLPMIPSGGAFKDMILDGDGRTVY
notes: mature AHAS, N-terminal 59-residue signal (transit) peptide removed; pGEX4T2, E. coli Rosetta; GST tag cut by thrombin; 64 kDa; WT mainly dimer (128 kDa), small tetramer peak (256 kDa); deletion mutant dimer only
B2: AHAS-WT (rice acetohydroxyacid synthase) (Oryza sativa Japonica Group) (protein)
chain: TPLRPWGPAEPRKGADILVEALERCGVSDVFAYPGGASMEIHQALTRSPVITNHLFRHEQGEAFAASGYARASGRVGVCVATSGPGATNLVSALADALLDSVPMVAITGQVPRRMIGTDAFQETPIVEVTRSITKHNYLVLDVEDIPRVIQEAFFLASSGRPGPVLVDIPKDIQQQMAVPVWDTSMNLPGYIARLPKPPATELLEQVLRLVGESRRPILYVGGGCSASGDELRWFVELTGIPVTTTLMGLGNFPSDDPLSLRMLGMHGTVYANYAVDKADLLLAFGVRFDDRVTGKIEAFASRAKIVHIDIDPAEIGKNKQPHVSICADVKLALQGLNALLQQSTTKTSSDFSAWHNELDQQKREFPLGYKTFGEEIPPQYAIQVLDELTKGEAIIATGVGQHQMWAAQYYTYKRPRQWLSSAGLGAMGFGLPAAAGASVANPGVTVVDIDGDGSFLMNIQELALIRIENLPVKVMVLNNQHLGMVVQWEDRFYKANRAHTYLGNPECESEIYPDFVTIAKGFNIPAVRVTKKSEVRAAIKKMLETPGPYLLDIIVPHQEHVLPMIPSGGAFKDMILDGDGRTVY
notes: as for B1

Substrate: CC(=O)C(=O)O
Test: acetolactate to acetoin, creatine/naphthol colorimetric A525, Michaelis-Menten
Assay type: biochemical, Oryza sativa
Settings: pH 7.5 phosphate, 10 mM MgCl2, 20 uM FAD, 1 mM thiamine pyrophosphate, 37 °C, no herbicide
Excerpt: acetolactate to acetoin, creatine/naphthol colorimetric A525, Michaelis-Menten on AHAS-WT (rice acetohydroxyacid synthase)

| Protein | Km [mM] | kcat [s⁻¹] | kcat/Km [M⁻¹ s⁻¹] |
| --- | --- | --- | --- |
| B1 | 9.4 ± 0.4 | 6.6 ± 0.5 | 700 ± 50 |
| B2 | 9.2 ± 0.4 | 6.7 ± 0.3 | 710 ± 30 |

Reference: PMC7072996, “Engineering Herbicide-Tolerance Rice Expressing an Acetohydroxyacid Synthase with a Single Amino Acid Deletion” (International Journal of Molecular Sciences, 2020)
